This note sets out measurements from patent US20220135701A1 (Genentech, published 2022).

The term Kd denotes the concentration at which binding is half-saturated.

Test [1] concerns the target T1, human MerTK (human, UniProt Q12866 26-499).
T1 construct: also called HuMER
T1 sequence: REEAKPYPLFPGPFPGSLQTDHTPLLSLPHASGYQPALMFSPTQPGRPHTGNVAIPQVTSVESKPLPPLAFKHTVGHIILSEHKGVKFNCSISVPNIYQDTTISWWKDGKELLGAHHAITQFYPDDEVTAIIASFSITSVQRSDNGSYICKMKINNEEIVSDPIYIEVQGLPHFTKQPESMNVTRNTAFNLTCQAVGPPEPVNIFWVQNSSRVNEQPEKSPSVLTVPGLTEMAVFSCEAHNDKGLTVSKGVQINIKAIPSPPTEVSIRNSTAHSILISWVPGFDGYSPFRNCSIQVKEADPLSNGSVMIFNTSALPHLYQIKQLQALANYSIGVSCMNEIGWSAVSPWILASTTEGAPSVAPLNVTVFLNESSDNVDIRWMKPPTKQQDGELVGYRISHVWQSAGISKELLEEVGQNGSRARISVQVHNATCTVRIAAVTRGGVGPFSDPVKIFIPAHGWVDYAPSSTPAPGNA
Put plainly: SPR BIAcore T200, Ab captured, 25C. How it is done: (§1) All binding affinity determinations were obtained using Surface Plasmon Resonance (SPR) measurements from a BIAcore™-T200 instrument. Briefly, each rabbit or humanized antibody was captured to achieve approximately 100 RU (Response Units). Then, 3-fold serial dilutions of MerTK from various species (0.4 nM to 100 nM) diluted in HBS-EP buffer (0.01M HEPES pH 7.4, 0.15M NaCl, 3 mM EDTA and 0.05% v/v surfactant P20) was injected into the BIAcore™-T200 instrument at 25° C. or 37° C. with a flow rate of 30 μl/min. Association rates (kₒₙ) and dissociation rates (koff) were calculated using a simple one-to-one Langmuir binding model (BIAcore T200 evaluation software version 2.0). The equilibrium dissociation constant (KD) was calculated as the ratio koff/kₒₙ.
For orientation: Surface plasmon resonance follows binding to a sensor surface in real time, without labels.

In test [2] the target is T2, cynomolgus monkey MerTK (cynomolgus monkey, UniProt A0A2K5V1H9 32-505).
T2 construct: Soluble analyte in SPR; also called Cyno MerTK
T2 sequence: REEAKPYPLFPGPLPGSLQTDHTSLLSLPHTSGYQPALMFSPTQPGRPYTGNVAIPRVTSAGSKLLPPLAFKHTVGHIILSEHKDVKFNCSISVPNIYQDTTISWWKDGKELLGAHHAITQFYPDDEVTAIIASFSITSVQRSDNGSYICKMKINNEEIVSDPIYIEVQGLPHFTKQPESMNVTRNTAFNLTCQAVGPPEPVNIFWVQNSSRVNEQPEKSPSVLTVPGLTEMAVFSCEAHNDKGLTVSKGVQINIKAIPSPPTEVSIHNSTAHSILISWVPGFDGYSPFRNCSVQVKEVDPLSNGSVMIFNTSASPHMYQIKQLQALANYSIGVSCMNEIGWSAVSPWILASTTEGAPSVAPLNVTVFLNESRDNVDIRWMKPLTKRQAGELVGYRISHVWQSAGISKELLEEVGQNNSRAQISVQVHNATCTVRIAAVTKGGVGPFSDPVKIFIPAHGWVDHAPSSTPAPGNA
Description: SPR BIAcore T200, Ab captured, 25C. The procedure:
as §1

Test [3] has as its target T3, mouse MerTK (mouse, UniProt Q60805 23-496).
T3 construct: also called MuMER
T3 sequence (looked up): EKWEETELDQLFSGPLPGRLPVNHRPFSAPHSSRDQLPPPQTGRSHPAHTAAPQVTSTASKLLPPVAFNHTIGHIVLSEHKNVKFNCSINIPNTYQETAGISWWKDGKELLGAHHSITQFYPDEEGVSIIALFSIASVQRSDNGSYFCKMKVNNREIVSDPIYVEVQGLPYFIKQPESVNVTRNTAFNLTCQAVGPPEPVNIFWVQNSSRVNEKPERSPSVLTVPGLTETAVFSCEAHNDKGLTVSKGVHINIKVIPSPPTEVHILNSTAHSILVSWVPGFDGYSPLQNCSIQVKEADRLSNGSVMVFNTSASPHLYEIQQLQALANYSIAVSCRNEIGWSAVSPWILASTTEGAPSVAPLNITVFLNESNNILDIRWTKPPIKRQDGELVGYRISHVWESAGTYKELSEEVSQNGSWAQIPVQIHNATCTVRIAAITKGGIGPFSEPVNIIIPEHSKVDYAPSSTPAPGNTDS
Description: SPR BIAcore T200, Ab captured, 25C. How it is done: as §1

The target of a further test is T4, HuMER (R26-A499) (human, UniProt Q12866 26-499).
T4 construct: Extracellular domain with both Ig-like and both fibronectin-like domains; also called human MerTK extracellular domain
T4 sequence: T1 sequence
Description: SPR BIAcore T200, Ab captured, 25C. The procedure:
(§2) Binding affinity determinations were obtained using Surface Plasmon Resonance (SRP) measurements from a BIAcore™-T200 instrument. Briefly, each rabbit antibody was captured to achieve approximately 100 RU (Response Units). Then, 3-fold serial dilutions of the various MerTK domains (0.4 nM to 100 nM) diluted in HBS-EP buffer (0.01M HEPES pH 7.4, 0.15M NaCl, 3 mM EDTA and 0.05% v/v surfactant P20) was injected into the BIAcore™-T200 instrument at 25° C. or 37° C. with a flow rate of 30 μl/min. Association rates (kₒₙ) and dissociation rates (koff) were calculated using a simple one-to-one Langmuir binding model (BIAcore T200 evaluation software version 2.0). The equilibrium dissociation constant (KD) was calculated as the ratio koff/kₒₙ.
(§3) Antibody epitope determination was assessed by BIAcore analysis for rabbit antibodies binding against both the human and mouse MerTK extracellular domain (HuMER R26-A499 and MuMER E23-S496), Ig1&2 domain, Ig1-only domain, and Ig2-only domain (TABLE 18). Human MerTK and its domains are shown in light gray, while mouse MerTK and its domains are shown in dark gray.

In the next test the target is T5, MuMER (E23-S496) (mouse, UniProt Q60805 23-496).
T5 construct: range 23-496; also called mouse MerTK extracellular domain
T5 sequence (looked up): T3 sequence (looked up)
Put plainly: SPR BIAcore T200, Ab captured, 25C. How it is done: as §2, §3

The target in test [4] is T6, human MerTK on human macrophages (human, UniProt Q12866 21-999).
T6 sequence: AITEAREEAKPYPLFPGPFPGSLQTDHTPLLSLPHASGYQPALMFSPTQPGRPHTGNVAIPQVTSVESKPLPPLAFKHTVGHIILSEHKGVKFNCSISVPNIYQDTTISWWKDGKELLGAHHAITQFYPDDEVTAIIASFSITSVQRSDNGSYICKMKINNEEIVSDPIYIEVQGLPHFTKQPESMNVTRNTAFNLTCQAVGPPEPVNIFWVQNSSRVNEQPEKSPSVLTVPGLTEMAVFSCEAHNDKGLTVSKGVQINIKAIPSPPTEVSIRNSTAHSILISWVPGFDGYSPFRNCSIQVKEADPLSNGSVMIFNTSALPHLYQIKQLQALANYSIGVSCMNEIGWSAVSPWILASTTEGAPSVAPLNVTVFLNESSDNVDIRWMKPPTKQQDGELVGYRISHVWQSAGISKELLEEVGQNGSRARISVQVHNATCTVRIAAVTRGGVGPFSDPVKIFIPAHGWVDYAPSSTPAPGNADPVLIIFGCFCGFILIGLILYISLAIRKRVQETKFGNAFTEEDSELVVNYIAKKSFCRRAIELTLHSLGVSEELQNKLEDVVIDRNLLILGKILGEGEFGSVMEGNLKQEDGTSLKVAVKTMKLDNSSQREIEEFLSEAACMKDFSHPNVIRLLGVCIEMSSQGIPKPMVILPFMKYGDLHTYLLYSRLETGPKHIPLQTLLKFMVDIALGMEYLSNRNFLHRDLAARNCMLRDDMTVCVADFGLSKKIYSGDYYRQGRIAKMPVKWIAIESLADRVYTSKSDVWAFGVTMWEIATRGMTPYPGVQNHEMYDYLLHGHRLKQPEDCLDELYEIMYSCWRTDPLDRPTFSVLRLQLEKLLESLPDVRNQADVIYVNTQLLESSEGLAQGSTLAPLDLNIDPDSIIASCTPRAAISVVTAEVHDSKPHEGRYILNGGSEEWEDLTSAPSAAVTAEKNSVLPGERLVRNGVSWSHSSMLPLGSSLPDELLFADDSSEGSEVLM
Put plainly: cell-based or functional assay.

Test [5] concerns the target T1, human MerTK. Put plainly: SPR BIAcore T200, Ab captured, 37C. The procedure: as §1
In test [6] the target is T2, cynomolgus monkey MerTK. Put plainly: SPR BIAcore T200, Ab captured, 37C. How it is done: as §1
In another test the target is T7, rat MerTK (rat, UniProt P57097 23-496, limits assumed).
T7 construct: Soluble analyte in SPR
T7 sequence (looked up): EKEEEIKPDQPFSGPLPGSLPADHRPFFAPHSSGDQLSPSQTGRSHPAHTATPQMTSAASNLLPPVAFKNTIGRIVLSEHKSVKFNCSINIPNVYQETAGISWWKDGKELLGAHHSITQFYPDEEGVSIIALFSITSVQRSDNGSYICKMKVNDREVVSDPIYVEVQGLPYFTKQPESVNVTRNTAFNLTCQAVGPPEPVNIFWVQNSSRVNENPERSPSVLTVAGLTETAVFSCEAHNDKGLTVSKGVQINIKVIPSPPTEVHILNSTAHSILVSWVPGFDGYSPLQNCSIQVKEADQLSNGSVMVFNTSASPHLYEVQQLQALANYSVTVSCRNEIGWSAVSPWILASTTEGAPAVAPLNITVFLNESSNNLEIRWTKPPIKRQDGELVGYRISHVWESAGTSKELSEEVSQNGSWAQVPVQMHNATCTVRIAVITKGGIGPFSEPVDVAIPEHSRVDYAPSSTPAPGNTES
Put plainly: SPR BIAcore T200, Ab captured, 37C. How it is done: as §1

Test [7] concerns the target T3, mouse MerTK. Description: SPR BIAcore T200, Ab captured, 37C. The procedure: as §1

B1: Rbt22C4 (antibody, V domains shown)
VH: QSVEESGGRLVTPGTPLTLTCTVSGFSLSTYSMSWVRQAPGKGLEWLGIVSVAIDPVYATWARGRFTISRTSTTVNLKITSPTTEDTATYFCVRVAFSTNGIPHRLDLWGQGTLVTVSS
VL: AQVLTQTASSVSAAVGGTVTISCQSSPSVYNHNWLSWYQQKPGQPPKLLIYEASKLASGVPSRFSGSGSGTQFTLTISDVQCDEAATYYCAGGFSSGSDSFAFGGGTEVVVT
notes: Recombinant rabbit monoclonal antibody, Expi293, protein A purified
For B1, the Kd turned out to be 94 nM in the test with human MerTK [1]; 82.2 nM with cynomolgus monkey MerTK [2]; 2.2 nM with mouse MerTK [3]; 94 nM with HuMER (R26-A499); 2.2 nM with MuMER (E23-S496).

B2: Rbt8F4 (antibody, V domains shown)
VH: QSVQESGGRLVTPGTPLTLTCTVSGFSLINYPMSWVRQAPGKGLEWIGVISSTGGTNYASWAKGRFTISKTSTTVDLKITSPTTEDTATYFCARVDFLVYLGGAYIIWGLDLWGQGTLVTVSS
VL: AAVLTQTPSPVSAAVGGTVTINCQSSPNIYSNYLSWFQQKPGQPPKILIYGASTLASGVPSRFKGSGSGTQFTLTISDVQCDDAATYYCAGGYSDSSEAYAFGGGTEVVVK
notes: as for B1
B2: the Kd in the test with human MerTK [1] worked out at 44 nM; with cynomolgus monkey MerTK [2], 14.7 nM; with mouse MerTK [3] it was 2.3 nM; with HuMER (R26-A499), 44 nM; with MuMER (E23-S496) it was 2.3 nM.

B3: Rbt13D8 (antibody, V domains shown)
VH: QSLEESGGRLVTPGTPLTLTCTVSGFSFSSYSMGWVRQAPGKGPEYIGVISASGTTYYASWVNGRFTISKTSTTMDLKMTSPTAADTATYFCARAAFTAYNRGSCVIHRLDLWGQGTLVTVSS
VL: AQVLTQTASSVSAAVGGTVTINCQASQSVYDSKWLAWYQQKPGQPPKLLIYSASTLASGVPSRFKGSGSGTQFTLTISDLECDDAATYYCAGAYTDNIVFGGGTEVVVK
notes: as for B1
As to B3, the Kd with human MerTK [1] was 4.3 nM; in the test with cynomolgus monkey MerTK [2], 3.8 nM; with mouse MerTK [3] it was 1.2 nM; with HuMER (R26-A499), 4.3 nM; with MuMER (E23-S496), 1.2 nM.

B4: h10C3.v14 (antibody, V domains shown)
VH: EVQLVESGGGLVQPGGSLRLSCAASGFSLSGYTMGWVRQAPGKGLEYIGVISSGGTTYYTNWAKGRFTISKDNSKNTLYLQMGSLRAEDMAVYYCARVAFTAYGGGGFPTLHRLDLWGQGTLVTVSS
VL: DQVLTQSPDSLAVSLGERATINCQSSESVYNNDYLAWYQQKPGQPPKLLIYSASTLASGVPDRFSGSGSGTDFTLTISSLQAEDVAVYYCAGGYLGNNVFGGGTKVEIK
notes: Humanized, human IgG1; also called 10C3 Humanized polished mAb
With B4, in [4], the “IC50 (nM), efferocytosis by human macrophages, Average (3 Donors)” value was found to be 0.95 nM; the “IC50 (nM), efferocytosis by human macrophages, Donor A” value was found to be 0.52 nM; the “IC50 (nM), efferocytosis by human macrophages, Donor B” value worked out at 1.2 nM; the “IC50 (nM), efferocytosis by human macrophages, Donor C” value turned out to be 1.2 nM. In addition, in [4], the “Max Inhibition (%), efferocytosis by human macrophages, Average (3 Donors)” value was found to be 61%; the “Max Inhibition (%), efferocytosis by human macrophages, Donor A” value came to 64%; the “Max Inhibition (%), efferocytosis by human macrophages, Donor B” value is 58%; the “Max Inhibition (%), efferocytosis by human macrophages, Donor C” value was found to be 62%. In addition, binding with human MerTK [5] was characterised by a dissociation constant (Kd) of 6.9 nM. This molecule showed a Kd with cynomolgus monkey MerTK [6] of 3.2 nM. This molecule also gave a Kd in the test with rat MerTK of 2.4 nM. In addition, in the test with mouse MerTK [7], binding was put at a Kd of 0.9 nM.
